Laboratory results published in patent publication US10526416B2, “Anti-HER3 antibodies and uses of same” (Yeda Research and Development Co. Ltd., priority 2014, dated 2020).

B1: NG83: anti-HER3 mAb; light chain CDRs SEQ ID NOs: 7-9, heavy chain CDRs 10-12 (antibody, V domains shown)
VH: QIQLVQSGPELKKRGETVKISCKASGYTFTNYGMNWVRQAPGKGLKCMGWINTYAGEPTYADDFKGRFAFSLDSSASTAYLQINNLKNEDMATYFCARGGITGAMDYWGQGTSVTVSS
VL: DVVMTQKTSSLSTSLGDRVTISCRASQDIRNYLNWYQQKPDGTVKLLIYYTSRLHSGVPSRFSGSGSGTDYSLTISDLEQEDIATYFCQQGNTLPWTFGGGTKLAIK
modifications: VH chain of NG83 polypeptide; VL chain of NG83 polypeptide
B2: XC252: anti-HER3 mAb generated as described in Chen X, et al. (1996); heavy and light chain SEQ ID NOs: 49 and 53 (antibody, V domains shown)
VH: EVQLQQSGAELVRPGVSVKISCKGSGYTFTDYAMHWVKQSHAKSLEWIGVISTYYGDPRDNQKFKGKATMTVDKSSSTAYMELARLTSEDSAIYYCARGDYDWYAIDYWGQGTSVTVSS
VL: DVVMTQTPLSLPVSLGDQASISCRSSQSIVHSDGNTYLEWYLQKPGQSPKLLIYKVSNRFSGVPDRFSGSGSGTDFTLKISRVEAEDLGVYYCFQGSHVPPTFGGGTKLEIK
modifications: VH chain of XC252 polypeptide; VL chain of XC252 polypeptide

How the values were obtained:
[1] = target: denatured form of HER3 (Homo sapiens, UniProt P21860); assay: Western blot detection of HER3 in T47D cell lysate (mAb as primary Ab); type: binding
Experimental: FIGS. 1A-E show hybridoma Screening and mAb Isotyping. (FIG. 1A) Mice were immunized with recombinant IgB3. (FIG. 1B) The hybridoma supernatant screening using ELISA, was performed on 96 well-plate coated with IgB3 (1 μg/ml) or with a human IgG. The plates were blocked with PBS-1% BSA and incubated for 1 h with hybridoma supernatants, followed by a second incubation for 1 h with HRP-labeled anti-mouse IgG and subsequently detected by 2,2′-azino-bis (3-ethylbenzothiazoline-6-sulfonic acid) addition. The OD at 415 nm was then measured using an ELISA microplate reader. (FIG. 1C) The second step of the screening was performed by immunoprecipitation (IP). Anti-mouse IgG beads were incubated first with the hybridoma supernatant and subsequently with total cell lysate from HER3-expressing T47D cells. (FIG. 1D) The mAbs directed to HER3 were isotyped using ELISA. […] (FIG. 1E) Finally the ability of the mAbs to detect HER3, used as primary Ab in a Western Blot experiment, was determined on cell lysate from T47D cells.
Cells were grown under specified conditions or treated as indicated. […] Antibody binding to membrane blots was detected using horseradish peroxidase-secondary antibodies (Jackson ImmunoResearch Laboratories), followed by treatment with ECL Western blotting detection reagents (GE Healthcare). […]

[2] = target: HER3 (Homo sapiens, UniProt P21860); assay: HER3 degradation in N87 cells (immunoblotting); type: cell-based; details: 3 h, 10 μg/ml mAb
Experimental: (FIGS. 5A and 5B) The mAb ability to degrade HER3 after cell treatment was determined as follows. N87 cells were treated for 3 h at 37° C. with 10 μg/ml mAb. After cell lysis and protein extraction, the samples were subjected to immunoblotting with the indicated Ab. (FIG. 5C) The experiment shown in FIG. 5A was performed on 6 other cancer cell lines. (FIG. 5D) The mAb capacity to induce ADCC is reported. BXPC3-luc cells were incubated with the indicated mAbs and secondarily with human PBMC cells for 24 h. Cell killing was detected by measuring the luminescence after final addition of luciferine. *** […], ANOVA and post hoc tests.
NG33 and NRG abilities to degrade HER3 after cell treatment were determined as follows. […]
FIGS. 12A-D show a combination of two mAbs directed to two different epitopes of HER3. […] After ah incubation, the plate was washed 4 times with KREBS buffer, and the fluorescence intensity at 610 nm was measured using a fluorescence microplate reader. […] (FIG. 12D) The combination's capacity to modulate NRG-induced phosphorylation of HER3, AKT and ERK was evaluated using N87 cells. […] The cells were then lysed, and equal quantities of lysate protein were electrophoresed before immunoblotting, as indicated. […]
The capacity of the mAbs to decrease abundance of HER3 was determined using western blotting. […]

denatured form of HER3, sequence (P21860 20-1342): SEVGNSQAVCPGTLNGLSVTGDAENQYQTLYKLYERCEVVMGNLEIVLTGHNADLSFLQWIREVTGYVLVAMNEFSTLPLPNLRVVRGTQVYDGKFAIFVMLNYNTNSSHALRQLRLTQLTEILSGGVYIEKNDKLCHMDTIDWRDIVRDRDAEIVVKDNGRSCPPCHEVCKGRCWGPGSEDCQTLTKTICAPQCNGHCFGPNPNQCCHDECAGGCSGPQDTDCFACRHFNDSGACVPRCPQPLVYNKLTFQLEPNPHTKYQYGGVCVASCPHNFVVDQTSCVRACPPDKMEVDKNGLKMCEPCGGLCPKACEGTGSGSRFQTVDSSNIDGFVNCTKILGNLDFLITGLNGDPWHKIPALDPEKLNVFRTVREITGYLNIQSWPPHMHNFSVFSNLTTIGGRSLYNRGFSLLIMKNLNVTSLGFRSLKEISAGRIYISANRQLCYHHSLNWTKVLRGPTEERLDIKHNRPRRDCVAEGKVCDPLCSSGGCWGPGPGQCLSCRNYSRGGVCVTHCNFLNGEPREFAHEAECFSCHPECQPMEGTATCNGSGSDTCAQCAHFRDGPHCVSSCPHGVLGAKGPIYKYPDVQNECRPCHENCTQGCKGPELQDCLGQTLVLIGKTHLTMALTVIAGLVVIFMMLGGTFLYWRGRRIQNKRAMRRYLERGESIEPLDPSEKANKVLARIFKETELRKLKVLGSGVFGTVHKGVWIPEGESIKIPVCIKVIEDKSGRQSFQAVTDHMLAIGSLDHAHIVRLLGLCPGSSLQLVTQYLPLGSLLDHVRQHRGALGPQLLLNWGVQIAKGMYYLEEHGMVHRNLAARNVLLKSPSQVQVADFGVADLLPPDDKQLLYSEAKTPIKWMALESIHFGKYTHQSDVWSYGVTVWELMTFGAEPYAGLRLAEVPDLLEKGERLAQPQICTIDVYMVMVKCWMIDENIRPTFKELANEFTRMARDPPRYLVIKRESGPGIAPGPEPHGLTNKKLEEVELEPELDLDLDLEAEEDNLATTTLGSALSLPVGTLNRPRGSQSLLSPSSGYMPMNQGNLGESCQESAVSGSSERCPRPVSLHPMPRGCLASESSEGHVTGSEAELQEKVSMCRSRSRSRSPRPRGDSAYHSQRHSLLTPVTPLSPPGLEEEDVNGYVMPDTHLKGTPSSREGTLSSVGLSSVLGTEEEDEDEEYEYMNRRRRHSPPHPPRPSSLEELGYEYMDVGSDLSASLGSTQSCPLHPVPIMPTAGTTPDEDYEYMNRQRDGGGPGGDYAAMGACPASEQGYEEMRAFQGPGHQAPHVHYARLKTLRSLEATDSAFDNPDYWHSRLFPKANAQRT
HER3, sequence (P21860 20-1342): as above

Row | Molecule | recognition of HER3 in western blotting [1] | HER3 degradation [2]
1 | B1 | able to recognize the denatured form of HER3 | 
2 | B2 |  | caused HER3 degradation, but their impact was weaker
